Positions count from the first letter of the chain named.
B1: A19-61.1 (antibody, V domains shown)
VH: QVQLVESGGGVVQPGRSLRLSCAASGFTFSSYAFHWVRQAPGKGLEWVAVISYDGSNQYYADSVKGRFTISRDNSKNTLYLQMNSLRADDTAVYYCARDLAIAVAGTWHYYNGMDVWGQGTTVTVSS
VL: DIQMTQSPSSVSASVGDRVIITCRASQGISSWLAWYQQKPGKAPKVLIYDASSLQSGVPSRFSGSGYGTDFTLTISSLQPEDSATYYCQQAKSFPITFGQGTRLEIK
notes: control antibody, IgG1; also called antigen site F (Class III); source: Expi293F, purified; expressed as human IgG1
B2: A19-46.1 (antibody, V domains shown)
VH: QVQLVESGGGVVQPGRSLRLSCAASGFTLSSYGMHWVRQAPGKGLEWVAVISYDGSNKYYVDSVKGRFTISRDNSKNTLYLQMNSLRAEDTAVYYCARGWAYWELLPDYYYGMDVWGQGTTVTVSS
VL: QTVVTQEPSFSVSPGGTVTLTCGLSSGSVSTAYFPSWYQQTPGQAPRTLIYGTNTRSSGVPDRFSGSILGNKAALTITGAQADDESDYYCVLYMGRGIVVFGGGTKLTVL
notes: control antibody, IgG1; also called antigen site D (Class II); source: Expi293F, purified; expressed as human IgG1
B3: CB6 (antibody, V domains shown)
VH: EVQLVESGGGLVQPGGSLRLSCAASGFTVSSNYMSWVRQAPGKGLEWVSVIYSGGSTFYADSVKGRFTISRDNSMNTLFLQMNSLRAEDTAVYYCARVLPMYGDYLDYWGQGTLVTVSS
VL: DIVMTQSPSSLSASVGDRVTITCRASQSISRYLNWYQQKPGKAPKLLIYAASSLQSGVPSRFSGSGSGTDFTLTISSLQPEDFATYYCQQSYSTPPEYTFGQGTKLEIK
notes: control antibody, IgG1; also called antigen site B (Class I); source: Expi293F, purified; expressed as human IgG1
B4: LY-CoV-555 (antibody, V domains shown)
VH: QVQLVQSGAEVKKPGSSVKVSCKASGGTFSNYAISWVRQAPGQGLEWMGRIIPILGIANYAQKFQGRVTITADKSTSTAYMELSSLRSEDTAVYYCARGYYEARHYYYYYAMDVWGQGTAVTVSS
VL: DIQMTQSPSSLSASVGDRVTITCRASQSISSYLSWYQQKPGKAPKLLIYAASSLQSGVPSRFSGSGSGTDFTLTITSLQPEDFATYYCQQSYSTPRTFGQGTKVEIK
notes: control antibody, IgG1; also called antigen site E (Class II); source: Expi293F, purified; expressed as human IgG1
B5: WRAIR-5005 (antibody, V domains shown)
VH: QVQLQESGPGLVKPSETLSLTCAVSGSSVNSGYGWTWLRQPPGKGLEWIGYIGGGSGSTIYNPSLKSRLTISKDTSKNQFSLKLSSVTAADTAVYYCASLDYGTTYSWFDVWGPGVLVTVSS
VL: SYELTQPRSVSVSPGQMARITCGGDNIGSKSVQWYQHKPPQAPVLVIYADSERPSGIPERFSGSNSGNTATLTISGVEAGDEADYYCQVWDSSSDVLFGGGTRLTVLG
notes: also called CoV_5005; source: Expi293F, transfected, purified (Protein A magnetic beads)
B6: WRAIR-5020 (antibody, V domains shown)
VH: QVQLQESGPGLVKPSETLSLTCAVSGASISSYWWGWIRQPPGKGLEWIGRISGSSGSTSYNPSLKSRVTISTDTSKNQFSLKLSSVTAADTAVYYCASRITIFGLLRSYWGQGVLVTVSS
VL: EIVMTQSPATLSLSPRERATLSCRASQSVSSNLAWYQQKPGQAPRLLIYYASNRATGIPDRFSGSGSGTDFTLTISSLEPEDVGLYYCQQESNWPWTFGQGTKVEIKR
notes: also called CoV_5020; source: Expi293F, transfected, purified (Protein A magnetic beads)
B7: WRAIR-5004 (antibody, V domains shown)
VH: QVQLVQSGAEIKQPGASVKLSCKASGYTFTTYYIHWVRQAPGQGLEWIGLISPYNGNRGYAQNFQGRVTITTDTSTSTGYMELSSLRSEDTAVYYCTRERVVAAAGYFDYWGQGVLVTVSS
VL: SYELTQPPSVSVSPGQTARITCGGDNIGSKNVQWYQQKPAQAPVLVIYDDSERPSGIPERFSGSNSGNTATLTISGVEAGDEAGYSCQVWDSSPDHYIFGAGTRLTVLG
notes: also called CoV_5004; source: Expi293F, transfected, purified (Protein A magnetic beads)
B8: WRAIR-5011 (antibody, V domains shown)
V domain 1: EVQLVQSGAEIKQPGASVKLSCKASGYTFTSYYIHWVRQAPGQGLEWIGLISPYNGNRAYAQNFQGRVTITTDTSTSTVYMELSSLKSEDTAVYYCAGEEYSNYGYFDLWGPGTPITISS
V domain 2: B7 VL with G84D, S86Y, P94G
notes: also called CoV_5011; source: Expi293F, transfected, purified (Protein A magnetic beads)
B9: WRAIR-5021 (antibody, V domains shown)
VH: QVQLQESGPGLVKPSETLSLTCAVSGYSISSGYYWGWIRQPPGKGLEYIGYFSGTTGSTYYNPSLKSRVTISKDTSKNQFSLKLNSVTAADTAVYYCARQPPRFDVWGPGVLVTVST
VL: DIQMTQSPSSLSASVGDTVTITCRASQGISNFLNWYQQKPGKAPKLLIYDASRLESGVPSRFSGSGSGTEFTLTISSLQPEDFATYHCLQYDSDPFTFGPGTKLDIKR
notes: also called CoV_5021; source: Expi293F, transfected, purified (Protein A magnetic beads)
B10: WRAIR-5001 (antibody, V domains shown)
VH: QVQLVQSGAEVKKPGASVKLSCKASGYTFTSYSINWVRQAPGQGLEWMGWVNPSNGVTVYAQKFQGRVTMTRDTSTSTAYMELSSLRFEDTAVYYCARERDQLVVYFDHWGQGALVTVSS
VL: SYELTQPRSVSVSPGQTARITCGGDNIASKNVHWYQQKLAQAPVLVIYYDSDRPSGIPERFSGSNSGNTATLTISGVEAGDEADYYCQVWDSYSGHHVLFGGGTRLTVLG
notes: also called CoV_5001; source: Expi293F, transfected, purified (Protein A magnetic beads)

Molecular target: T1, SARS-CoV-2 RBD (318-514), Avi-tagged, biotinylated (SARS-CoV-2, UniProt P0DTC2, biotin (BirA biotinylation kit))
T1 construct: source: Expi293F, purified (Ni-NTA); biotinylated with the BirA kit
Experiment: BLI
Conditions: both partners purified

B1: binds.
B2: binds.
B3: binds.
B4: binds.

Molecular target: T2, SARS-CoV-2 WA-1 RBD (SARS-CoV-2, UniProt P0DTC2 331-527)
T2 construct: source: Expi293F, purified (Ni-NTA)
Experiment: BLI
Conditions: both partners purified

In order of rising Kd:
1. B8  0.69 ± 0.013 nM
2. B7  0.72 ± 0.015 nM
3. B9  1.09 ± 0.007 nM
4. B5  1.14 ± 0.013 nM
5. B6  13 ± 0.1 nM

In order of rising koff:
1. B10  0.000119 s⁻¹
2. B8  0.000147 s⁻¹
3. B7  0.000154 s⁻¹
4. B5  0.000238 s⁻¹
5. B9  0.000353 s⁻¹
6. B6  0.00273 s⁻¹

In order of falling kon:
1. B9  325000 M⁻¹ s⁻¹
2. B8  215000 M⁻¹ s⁻¹
3. B6  210000 M⁻¹ s⁻¹
4. B5  209000 M⁻¹ s⁻¹
5. B10  209000 M⁻¹ s⁻¹
6. B7  199000 M⁻¹ s⁻¹

Reference: PMC10764318 (Nature Communications, 2024)
